Experimental data reported in the supplement of paper PMC6757056.
± gives the standard deviation of the averaged measurements.

B1: library; a variant is named by its letters at N, in order (parent)
chain: GCUGUCACCGAGAAACUGUGAAGUAUAUCUUAAACCUGGGCACUUAAAAGAUAUAUGGAGUUAGUAGUGCAACCUGCUCGGUCUGAUGAGUCCNNNNNNGGACGAAACAGC

Legend:
[1] = variants of: B1; test: normalized RNA/DNA level without ligand (relative to sTRSVctl = 100) (log10 (% of sTRSVctl)); HEK293T; ligand: cyclic di-GMP (c-di-GMP-II aptamer); higher = less ribozyme self-cleavage, higher mRNA level; details: reporter: mCherry (pCS4076), ligand present: no
Procedure, shortened: (§1)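 For each 6-well well, 4 µg of library plasmid encoding mCherry-linked ribozyme switches, or eGFP-linked ones in some ligand experiments, was transfected into HEK293T. Any ligand was added 1 h before transfection, and RNA was extracted with EDTA 72 h after it, then reverse-transcribed, amplified, barcoded and sequenced. RNA level was obtained by dividing RNA reads by DNA reads, normalizing to a spiked-in non-cleaving sequence or to the top sequences, then scaling and log-transforming. The top set was 25 sequences, scaling was ×100 with log10, and ≥100 DNA reads were required.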

[2] = variants of: B1; test: normalized RNA/DNA level with ligand (relative to sTRSVctl = 100) (log10 (% of sTRSVctl)); HEK293T; ligand: cyclic di-GMP (c-di-GMP-II aptamer); ligand concentration (+) RNA-Seq: 1 mM; higher = less ribozyme self-cleavage, higher mRNA level; details: reporter: mCherry (pCS4076), ligand present: yes
Procedure, shortened: as §1

Row | Variant | normalized RNA/DNA level without ligand (log10) [1] | normalized RNA/DNA level with ligand (log10) [2]
1 | GCUGUCACCGAGAAACUGUGAAGUAUAUCUUAAACCUGGGCACUUAAAAGAUAUAUGGAGUUAGUAGUGCAACCUGCUCGGUCUGAUGAGUCCCAGGCUGGACGAAACAGC [CAGGCU] | 1.8 ± 0.012 | 1.9 ± 0.11
2 | GCUGUCACCGAGAAACUGUGAAGUAUAUCUUAAACCUGGGCACUUAAAAGAUAUAUGGAGUUAGUAGUGCAACCUGCUCGGUCUGAUGAGUCCCAGGCAGGACGAAACAGC [CAGGCA] | 1.615 ± 0.0084 | 1.71 ± 0.13
3 | GCUGUCACCGAGAAACUGUGAAGUAUAUCUUAAACCUGGGCACUUAAAAGAUAUAUGGAGUUAGUAGUGCAACCUGCUCGGUCUGAUGAGUCCCAGGCGGGACGAAACAGC [CAGGCG] | 1.75 ± 0.091 | 1.88 ± 0.13
4 | GCUGUCACCGAGAAACUGUGAAGUAUAUCUUAAACCUGGGCACUUAAAAGAUAUAUGGAGUUAGUAGUGCAACCUGCUCGGUCUGAUGAGUCCAAGGAUGGACGAAACAGC [AAGGAU] | 1.49 ± 0.097 | 1.7 ± 0.096
5 | GCUGUCACCGAGAAACUGUGAAGUAUAUCUUAAACCUGGGCACUUAAAAGAUAUAUGGAGUUAGUAGUGCAACCUGCUCGGUCUGAUGAGUCCAAGGGCGGACGAAACAGC [AAGGGC] | 1.61 ± 0.027 | 1.75 ± 0.13
6 | GCUGUCACCGAGAAACUGUGAAGUAUAUCUUAAACCUGGGCACUUAAAAGAUAUAUGGAGUUAGUAGUGCAACCUGCUCGGUCUGAUGAGUCCUAGGCCGGACGAAACAGC [UAGGCC] | 1.819 ± 0.0024 | 1.9 ± 0.095
7 | GCUGUCACCGAGAAACUGUGAAGUAUAUCUUAAACCUGGGCACUUAAAAGAUAUAUGGAGUUAGUAGUGCAACCUGCUCGGUCUGAUGAGUCCUAGGCGGGACGAAACAGC [UAGGCG] | 1.768 ± 0.013 | 1.87 ± 0.12
8 | GCUGUCACCGAGAAACUGUGAAGUAUAUCUUAAACCUGGGCACUUAAAAGAUAUAUGGAGUUAGUAGUGCAACCUGCUCGGUCUGAUGAGUCCUAGGCAGGACGAAACAGC [UAGGCA] | 1.68 ± 0.072 | 1.84 ± 0.13
9 | GCUGUCACCGAGAAACUGUGAAGUAUAUCUUAAACCUGGGCACUUAAAAGAUAUAUGGAGUUAGUAGUGCAACCUGCUCGGUCUGAUGAGUCCGAGGCAGGACGAAACAGC [GAGGCA] | 1.81 ± 0.039 | 1.86 ± 0.089
10 | GCUGUCACCGAGAAACUGUGAAGUAUAUCUUAAACCUGGGCACUUAAAAGAUAUAUGGAGUUAGUAGUGCAACCUGCUCGGUCUGAUGAGUCCGAGGCCGGACGAAACAGC [GAGGCC] | 1.7859 ± 0.0011 | 1.89 ± 0.048
11 | GCUGUCACCGAGAAACUGUGAAGUAUAUCUUAAACCUGGGCACUUAAAAGAUAUAUGGAGUUAGUAGUGCAACCUGCUCGGUCUGAUGAGUCCGAGGCGGGACGAAACAGC [GAGGCG] | 1.817 ± 0.018 | 1.9 ± 0.14
12 | GCUGUCACCGAGAAACUGUGAAGUAUAUCUUAAACCUGGGCACUUAAAAGAUAUAUGGAGUUAGUAGUGCAACCUGCUCGGUCUGAUGAGUCCGAGGCUGGACGAAACAGC [GAGGCU] | 1.83 ± 0.046 | 1.87 ± 0.068
13 | GCUGUCACCGAGAAACUGUGAAGUAUAUCUUAAACCUGGGCACUUAAAAGAUAUAUGGAGUUAGUAGUGCAACCUGCUCGGUCUGAUGAGUCCCAGGGAGGACGAAACAGC [CAGGGA] | 1.53 ± 0.13 | 1.67 ± 0.067
14 | GCUGUCACCGAGAAACUGUGAAGUAUAUCUUAAACCUGGGCACUUAAAAGAUAUAUGGAGUUAGUAGUGCAACCUGCUCGGUCUGAUGAGUCCCAGGGGGGACGAAACAGC [CAGGGG] | 1.63 ± 0.032 | 1.74 ± 0.075
15 | GCUGUCACCGAGAAACUGUGAAGUAUAUCUUAAACCUGGGCACUUAAAAGAUAUAUGGAGUUAGUAGUGCAACCUGCUCGGUCUGAUGAGUCCCAGGGCGGACGAAACAGC [CAGGGC] | 1.73 ± 0.044 | 1.86 ± 0.16
16 | GCUGUCACCGAGAAACUGUGAAGUAUAUCUUAAACCUGGGCACUUAAAAGAUAUAUGGAGUUAGUAGUGCAACCUGCUCGGUCUGAUGAGUCCGAGGGGGGACGAAACAGC [GAGGGG] | 1.77 ± 0.056 | 1.86 ± 0.1
17 | GCUGUCACCGAGAAACUGUGAAGUAUAUCUUAAACCUGGGCACUUAAAAGAUAUAUGGAGUUAGUAGUGCAACCUGCUCGGUCUGAUGAGUCCGAGGGAGGACGAAACAGC [GAGGGA] | 1.65 ± 0.027 | 1.74 ± 0.083
18 | GCUGUCACCGAGAAACUGUGAAGUAUAUCUUAAACCUGGGCACUUAAAAGAUAUAUGGAGUUAGUAGUGCAACCUGCUCGGUCUGAUGAGUCCGAGGGCGGACGAAACAGC [GAGGGC] | 1.66 ± 0.057 | 1.82 ± 0.077
19 | GCUGUCACCGAGAAACUGUGAAGUAUAUCUUAAACCUGGGCACUUAAAAGAUAUAUGGAGUUAGUAGUGCAACCUGCUCGGUCUGAUGAGUCCUAGGGGGGACGAAACAGC [UAGGGG] | 1.563 ± 0.0094 | 1.72 ± 0.079
20 | GCUGUCACCGAGAAACUGUGAAGUAUAUCUUAAACCUGGGCACUUAAAAGAUAUAUGGAGUUAGUAGUGCAACCUGCUCGGUCUGAUGAGUCCUAGGGCGGACGAAACAGC [UAGGGC] | 1.64 ± 0.035 | 1.78 ± 0.1
21 | GCUGUCACCGAGAAACUGUGAAGUAUAUCUUAAACCUGGGCACUUAAAAGAUAUAUGGAGUUAGUAGUGCAACCUGCUCGGUCUGAUGAGUCCAAGGCCGGACGAAACAGC [AAGGCC] | 1.759 ± 0.0039 | 1.83 ± 0.083
22 | GCUGUCACCGAGAAACUGUGAAGUAUAUCUUAAACCUGGGCACUUAAAAGAUAUAUGGAGUUAGUAGUGCAACCUGCUCGGUCUGAUGAGUCCAAGGCUGGACGAAACAGC [AAGGCU] | 1.71 ± 0.088 | 1.83 ± 0.22
23 | GCUGUCACCGAGAAACUGUGAAGUAUAUCUUAAACCUGGGCACUUAAAAGAUAUAUGGAGUUAGUAGUGCAACCUGCUCGGUCUGAUGAGUCCAAGGCGGGACGAAACAGC [AAGGCG] | 1.728 ± 0.012 | 1.83 ± 0.091
24 | GCUGUCACCGAGAAACUGUGAAGUAUAUCUUAAACCUGGGCACUUAAAAGAUAUAUGGAGUUAGUAGUGCAACCUGCUCGGUCUGAUGAGUCCAAGGCAGGACGAAACAGC [AAGGCA] | 1.63 ± 0.05 | 1.71 ± 0.096
25 | GCUGUCACCGAGAAACUGUGAAGUAUAUCUUAAACCUGGGCACUUAAAAGAUAUAUGGAGUUAGUAGUGCAACCUGCUCGGUCUGAUGAGUCCUAGGAUGGACGAAACAGC [UAGGAU] | 1.58 ± 0.049 | 1.76 ± 0.078
26 | GCUGUCACCGAGAAACUGUGAAGUAUAUCUUAAACCUGGGCACUUAAAAGAUAUAUGGAGUUAGUAGUGCAACCUGCUCGGUCUGAUGAGUCCGAGGAUGGACGAAACAGC [GAGGAU] | 1.66 ± 0.022 | 1.77 ± 0.13
